The target in this experiment is biotinylated PECAM-1 Y663,pY686 peptide (human). The experiment can be described thus: flow cytometry bead-based binding assay.

B1: GST fusion protein containing the SH2 domain of Csk (domain or fragment)
chain: WFHGKITREQAERLLYPPETGLFLVRESTNYPGDYTLCVSCDGKVEHYRIMYHASKLSIDEEVYFENLMQLVEHYTSDADGLCTRLIKPK
In turn, B1 showed a binding relative to the Lyn SH2 domain of 2 fold.

(Values after PMC3666314.)
